Assay results taken from patent US20210032342A1 (Merck Sharp & Dohme, published 2021).
Residue numbers refer to the chain shown, from its start. Names and notes keep the numbering of the source.

B1: Humanized x [PD-1_H] Fab (08A/HuPD1A-11 S61N WT) IgG4/Kappa (00APE) (Fab, V domains shown)
VH: EVQLVQSGAEVKKPGASVKVSCKASGYTFTSYYLYWVRQAPGQGLEWIGGVNPSNGGTNFNEKFKSRVTLTVDTSISTAYMELSRLRSDDTAVYYCTRRDSNYDGGFDYWGQGTTVTVSS
VL: DIVMTQTPLSLSVTPGQPASISCRASKSVSTSGFSYLHWYLQKPGQPPQLLIFLASNLESGVPDRFSGSGSGTDFTLKISRVEAEDVGVYYCQHSWELPLTFGQGTKLEIKR
B2: Humanized x [PD-1_H] mAb (08A/HuPD1A-11 S61N CP-affinity matured Fab 100 (VH H3G9 (D100L N102H) G56A/VL L28D1) L234A L235A D265S) IgG1/Kappa (25AVE) (antibody, V domains shown)
VH: B1 VH with G56A, D100L, N102H
VL: B1 VL with A55S, S56K, N57Y, L58R, E59S, Q93S, H94Q, S95A, W96Y, E97H
notes: also called Humanized 08A IgG4 Fab 100 S61N G56A
B3: Anti-PD-1/LAG3 bispecific antibody 90ASU (bispecific antibody, human IgG1, kappa, L234A L235A)
heavy 1: not shown
light 1: DIVMTQTPLSLSVTPGQPASISCRASKSVSTSGFSYLHWYLQKPGQPPQLLIFLASNLESGVPDRFSGSGSGTDFTLKISRVEAEDVGVYYCQHSWELPLTFGQGTKLEIKRTVAAPSVFIFPPSDERLKSGTASVVCLLNNFYPREAKVQWKVDNALQSGNSQESVTEQDSKDSTYSLSSRLTLSKADYEKHKVYACEVTHQGLSSPVTKSFNRGEC
heavy 2: QMQLVQSGPEVKKPGTSVKVSCKASGYTFTDYNVDWVRQARGQRLEWIGDINPNDGGTIYAQKFQERVTITVDKSTSTAYMELSSLRSEDTAVYYCARNYRWFGAMDHWGQGTTVTVSSASTKGPSVFPLAPSSKSTSGGTAALGCLVKDYFPEPVTVSWNSGALTSGVHTFPAVLQSSGLYKLSSVVTVPSSSLGTQTYICNVNHKPSNTKVDKKVEPKSCDKTHTCPPCPAPEAAGGPSVFLFPPKPKDTLMISRTPEVTCVVVSVSHEDPEVKFNWYVDGVEVHNAKTKPREEQYNSTYRVVSVLTVLHQDWLNGKEYKCKVSNKALPAPIEKTISKAKGQPREPQVYVLPPSRDELTKNQVSLLCLVKGFYPSDIAVEWESNGQPENNYLTWPPVLDSDGSFFLYSKLTVDKSRWQQGNVFSCSVMHEALHNHYTQKSLSLSPG
light 2: DIVMTQTPLSLSVTPGQPASISCKASQSLDYEGDSDMNWYLQKPGQPPQLLIYGASNLESGVPDRFSGSGSGTDFTLKISRVEAEDVGVYYCQQSTEDPRTFGGGTKVEIKRTVAAPSVFIFPPSDEELKSGTATVVCLLNNFYPREAKVQWKVDNALQSGNSQESVTEQDSKDSTYSLSSYLELSKADYEKHKVYACEVTHQGLSSPVTKSFNRGEC
notes: also called Humanized x [PD-1_H]; [LAG3_H]; BsAb (hu08A S61N G56A arm / 22D2 arm) IgG1/Kappa
B4: Anti-PD-1/LAG3 bispecific antibody 33ARK (bispecific antibody, human IgG1, kappa, L234A L235A)
heavy 1: EVQLVQSGAEVKKPGASVKVSCKASGYTFTSYYLYWVREAPGQGLEWIGGVNPSNGGTNFNEKFKSRVTLTVDTSISTAYMELSRLRSDDTAVYYCTRRDSNYDGGFDYWGQGTTVTVSSASTKGPSVFPLAPSSKSTSGGTAALGCEVTDYFPEPVTVSWNSGALTSGVHTFPAVLESSGLYSLSSVVTVPSSSLGTQTYICNVNHKPSNTKVDKKVEPKSCDKTHTCPPCPAPEAAGGPSVFLFPPKPKDTLMISRTPEVTCVVVSVSHEDPEVKFNWYVDGVEVHNAKTKPREEQYNSTYRVVSVLTVLHQDWLNGKEYKCKVSNKALPAPIEKTISKAKGQPREPQVYVLPPSRDELTKNQVSLLCLVKGFYPSDIAVEWESNGQPENNYLTWPPVLDSDGSFFLYSKLTVDKSRWQQGNVFSCSVMHEALHNHYTQKSLSLSPG
light 1: B3 light 1 with Q42R, Q164K
heavy 2: not shown
light 2: B3 light 2 with Q42E, T135S, Q164E, Y182T
B5: Anti-PD-1/LAG-3 bispecific antibody (BsAb) 18ASS (bispecific antibody, human IgG1, kappa, L234A L235A)
heavy 1: not shown
light 1: B3 light 1 with A55S, S56K, N57Y, L58R, E59S, Q93S, H94Q, S95A, W96Y, E97H
heavy 2: B3 heavy 2
light 2: B3 light 2

Key:
[1] = molecular target: human PD-1 expressed on cells (Jurkat.hPD-1.IL2luc clone DT999A1; CD4+ T cell clone BC4-49) (human, UniProt Q15116 25-288); test: cell-based or functional assay
[2] = molecular target: T1, polyhistidine-tagged human PD-1 (hPD1-His, 98AFK) (human, UniProt Q15116 25-167, limits assumed); test: SPR solution affinity; reference Humanized 08A IgG4 S61N (98AIO)
T1 construct: also called human PD1-His; Human PD-1-His; not shown: polyhistidine tag
Method: The titration series were incubated for 16-24 hours to reach equilibrium at room temperature. The unbound sites were measured using a BIAcore chip immobilized with antigen in a competition mode where SPR signal detected corresponded to unbound antibody.
Free, unbound antibodies concentrations were measured as proportional to RU after 120 seconds (for 500 pM mAb series) or 400 seconds (for 100 pM mAb series) of injection at 10 μL/min.
Data analyses were performed using KINEXA Pro Version 1.02 (Sapydyne) where RUs were normalized and plotted against concentrations.

[3] = molecular target: T2, human LAG-3 expressed by the CD4+ T-cell clone BC4-49 (human, UniProt P18627 23-525); test: T-cell clone + JY.hPD-L1 co-culture (conclusion stated from IFNγ read-out)
T2 construct: whole, on cells
T2 sequence (looked up): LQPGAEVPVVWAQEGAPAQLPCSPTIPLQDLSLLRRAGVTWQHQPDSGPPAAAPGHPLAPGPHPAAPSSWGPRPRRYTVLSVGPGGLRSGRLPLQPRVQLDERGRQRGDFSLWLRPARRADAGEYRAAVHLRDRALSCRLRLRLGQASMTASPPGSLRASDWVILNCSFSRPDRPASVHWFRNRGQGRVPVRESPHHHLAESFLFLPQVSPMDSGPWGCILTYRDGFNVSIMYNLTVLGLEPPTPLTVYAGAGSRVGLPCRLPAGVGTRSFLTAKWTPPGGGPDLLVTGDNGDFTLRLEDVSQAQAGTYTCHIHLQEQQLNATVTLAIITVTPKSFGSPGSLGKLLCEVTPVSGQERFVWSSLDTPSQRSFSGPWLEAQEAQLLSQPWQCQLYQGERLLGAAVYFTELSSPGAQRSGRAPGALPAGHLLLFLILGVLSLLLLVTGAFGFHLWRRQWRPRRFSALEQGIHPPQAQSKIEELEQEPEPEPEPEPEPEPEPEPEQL
Method: The pellets were resuspended into single cell suspension in Yssel's medium. […] Fifty microliters of T cell suspension at a density of 4×10⁵ cells/mL was added into wells containing titrated antibodies. The antibody/T cell mixture was pre-incubated for 1 hour in an incubator at 37° C. with 5% CO₂. Human PD-L1 transgene expressing JY cells (JY.hPD-L1) were used in co-cultures to provide allo-specific antigens. […] The pellet was resuspended with Yssel's medium, and filtered with 40 μm cell strainer before plating. Fifty μL/well of JY.hPD-L1 suspension at a concentration of 2×10⁵ cells/mL was dispensed into pre-incubated antibody-T cells mixture, with T cell to JY.hPD-L1 cell ratio at 2:1. All conditions were run in duplicates. After approximately 3-day culture, 100 μL of supernatant per well was harvested for human IFNγ quantification. Human IFNγ ELISA was performed to assess IFNγ level on pooled supernatant from duplicates by using hIFNγ QUANTIKINE kit (R&D Systems, SIF50). Assays were run following the standard protocol provided by manufacturer. EC50 values were calculated using the [sequence] prism software.

Chain of human PD-1 expressed on cells (Jurkat.hPD-1.IL2luc clone DT999A1; CD4+ T cell clone BC4-49) (Q15116 25-288): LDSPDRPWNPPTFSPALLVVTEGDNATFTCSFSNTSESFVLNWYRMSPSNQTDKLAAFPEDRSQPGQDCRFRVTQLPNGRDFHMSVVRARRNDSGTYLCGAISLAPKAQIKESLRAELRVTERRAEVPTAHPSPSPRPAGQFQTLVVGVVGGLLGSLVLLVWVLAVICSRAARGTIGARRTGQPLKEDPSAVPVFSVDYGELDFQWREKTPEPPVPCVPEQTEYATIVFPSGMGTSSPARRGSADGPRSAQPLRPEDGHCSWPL
T1 sequence (Q15116 25-167 limits assumed): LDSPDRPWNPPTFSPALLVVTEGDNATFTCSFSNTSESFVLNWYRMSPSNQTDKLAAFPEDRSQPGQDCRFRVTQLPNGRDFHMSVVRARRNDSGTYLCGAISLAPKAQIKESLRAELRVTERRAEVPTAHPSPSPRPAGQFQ

Binder | AVG EC50, IL-2 luciferase reporter (Jurkat.hPD-1.IL2luc + THP-1.PD-L1 assay) [1] [nM] | KD (REF)/KD [2] | binding result [3]
B1 | 3.32 |  | 
B2 |  | 13 | 
B3 | 2.54 |  | binds
B4 | 3.12 |  | 
B5 | 0.55 |  | 
